First the molecules themselves.
B2: strep-tagged-SpoIIEcyt (cytoplasmic part of SpoIIE, MBP removed) (domain or fragment, B. subtilis 168, UniProt P37475 326-827, looked up)
chain: RKVARYIPGTVEHLQEQQQYARKIRDVTAQKVDQFSNVFHALSESFATFYQASDEQTDDSEVDLFLSKITEHSCQTCYKKNRCWVQNFDKTYDLMKQVMLETEEKEYASNRRLKKEFQQYCSKSKQVEELIEDELAHHHAHLTLKKKVQDSRRLVAEQLLGVSEVMADFSREIKREREQHFLQEEQIIEALQHFGIEIQHVEIYSLEQGNIDIEMTIPFSGHGESEKIIAPMLSDILEEQILVKAEQHSPHPNGYSHVAFGSTKSYRVSTGAAHAAKGGGLVSGDSYSMMELGARKYAAAISDGMGNGARAHFESNETIKLLEKILESGIDEKIAIKTINSILSLRTTDEIYSTLDLSIIDLQDASCKFLKVGSTPSFIKRGDQVMKVQASNLPIGIINEFDVEVVSEQLKAGDLLIMMSDGIFEGPKHVENHDLWMKRKMKGLKTNDPQEIADLLMEEVIRTRSGQIEDDMTVVVVRIDHNTPKWASIPVPAIFQNKQEIS
notes: SpoIIE of Bacillus subtilis 168, domains II and III (cytoplasmic part), amino acids 326-827; called a 501 residue fragment; also called s-SpoIIEcyt; strep-SpoIIEcyt; not shown: MBP, N-terminal, cleaved; strep-tag, N-terminal, kept

Data set [1] deals with the molecule itself. The data set is described as follows: co-sedimentation; 10 μM ms-SpoIIEcyt in 50 mM MES/NaOH pH 6.5, 50 mM KCl; after 1 mM EDTA, 5 mM MnCl2 added for 30 min; spun at 186,000 x g, supernatant and pellet on SDS-PAGE.
Data set [2] deals with the molecule itself. As to the kind of experiment: transmission electron microscopy; 10 μM FtsZ with or without 1.5 μM s-SpoIIEcyt, or 1.5 μM s-SpoIIEcyt alone with 10 mM MnCl2, in 50 mM Tris/HCl pH 7.5, 300 mM KCl with 1 mM EDTA or 10 mM MgCl2 or 10 mM MnCl2; GTP or GDP; samples taken after 30 min at 30°C.
The target in data set [3] is B2. The data set is described as follows: 90° light scattering; 10 μM FtsZ and/or 1.5 μM s-SpoIIEcyt in 50 mM Tris/HCl pH 7.5, 300 mM KCl, 10 mM MgCl2; 2 mM GTP or GDP added after 90 s; 30°C; controls of FtsZ alone with Mn2+ or EDTA. The conditions noted are these: both partners purified.
Data set [4] deals with the molecule itself. The description is as above.

B1: MBP-strep-tag-SpoIIEcyt fusion protein (cytoplasmic part of SpoIIE, domains II and III) (domain or fragment, B. subtilis 168, UniProt P37475 326-827, looked up)
chain: RKVARYIPGTVEHLQEQQQYARKIRDVTAQKVDQFSNVFHALSESFATFYQASDEQTDDSEVDLFLSKITEHSCQTCYKKNRCWVQNFDKTYDLMKQVMLETEEKEYASNRRLKKEFQQYCSKSKQVEELIEDELAHHHAHLTLKKKVQDSRRLVAEQLLGVSEVMADFSREIKREREQHFLQEEQIIEALQHFGIEIQHVEIYSLEQGNIDIEMTIPFSGHGESEKIIAPMLSDILEEQILVKAEQHSPHPNGYSHVAFGSTKSYRVSTGAAHAAKGGGLVSGDSYSMMELGARKYAAAISDGMGNGARAHFESNETIKLLEKILESGIDEKIAIKTINSILSLRTTDEIYSTLDLSIIDLQDASCKFLKVGSTPSFIKRGDQVMKVQASNLPIGIINEFDVEVVSEQLKAGDLLIMMSDGIFEGPKHVENHDLWMKRKMKGLKTNDPQEIADLLMEEVIRTRSGQIEDDMTVVVVRIDHNTPKWASIPVPAIFQNKQEIS
notes: SpoIIE of Bacillus subtilis 168, domains II and III (cytoplasmic part), amino acids 326-827; called a 501 residue fragment; Order on the chain: MBP (from pMalC2x), short strep-tag, SpoIIE 326-827; Co-purifies with about 2 Fe per protein; also called ms-SpoIIEcyt; source: E. coli BL21-RIL, purified (amylose resin, eluted with maltose); not shown: MBP, N-terminal, kept; strep-tag, N-terminal, kept
B1: the binding result in data set [1] is recorded as “binds”.

As to B2, in data set [2], the binding result was “binds”.

B3: FtsZ (natural protein, B. subtilis, UniProt P17865 1-382, looked up)
chain: MLEFETNIDGLASIKVIGVGGGGNNAVNRMIENEVQGVEYIAVNTDAQALNLSKAEVKMQIGAKLTRGLGAGANPEVGKKAAEESKEQIEEALKGADMVFVTAGMGGGTGTGAAPVIAQIAKDLGALTVGVVTRPFTFEGRKRQLQAAGGISAMKEAVDTLIVIPNDRILEIVDKNTPMLEAFREADNVLRQGVQGISDLIATPGLINLDFADVKTIMSNKGSALMGIGIATGENRAAEAAKKAISSPLLEAAIDGAQGVLMNITGGTNLSLYEVQEAADIVASASDQDVNMIFGSVINENLKDEIVVTVIATGFIEQEKDVTKPQRPSLNQSIKTHNQSVPKREPKREEPQQQNTVSRHTSQPADDTLDIPTFLRNRNKRG
notes: Cell division protein FtsZ of Bacillus subtilis; source: purified as described [25], > 95% purity
In the case of B3, the binding result in data set [3] and in data set [4] was “binds” throughout.

The record behind these values is paper PMC5373596, “Metal-dependent SpoIIE oligomerization stabilizes FtsZ during asymmetric division in Bacillus subtilis” (PLoS ONE, 2017).
